Measurements from PMC6199135, “Differing isoforms of the cobalamin binding photoreceptor AerR oppositely regulate photosystem expression” (eLife, 2018).

T1: CrtJ (Rhodobacter capsulatus, UniProt P26167 1-469, labeled using RED-NHS protein labeling kit (Nanotemper))
T1 construct: CrtJ, redox-responding transcription factor (aerobic repressor of photosystem genes) of Rhodobacter capsulatus; also called SUMO-CrtJ; PpsR (name in some other species); source: recombinant protein from plasmid pSUMO-CrtJ (PMID: 22715852)
T1 sequence (looked up): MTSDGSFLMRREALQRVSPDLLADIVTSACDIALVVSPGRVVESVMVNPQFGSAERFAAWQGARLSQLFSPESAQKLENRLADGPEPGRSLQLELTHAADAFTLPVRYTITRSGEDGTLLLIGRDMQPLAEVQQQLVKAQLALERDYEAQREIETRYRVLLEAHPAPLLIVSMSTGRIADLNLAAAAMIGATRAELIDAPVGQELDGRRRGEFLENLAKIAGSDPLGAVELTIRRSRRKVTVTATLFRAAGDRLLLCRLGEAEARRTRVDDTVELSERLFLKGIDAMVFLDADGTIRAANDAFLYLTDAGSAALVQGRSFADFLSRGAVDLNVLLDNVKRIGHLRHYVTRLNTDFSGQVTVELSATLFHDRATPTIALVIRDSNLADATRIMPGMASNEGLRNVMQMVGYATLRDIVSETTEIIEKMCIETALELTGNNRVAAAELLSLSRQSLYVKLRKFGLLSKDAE


Columns and labels:
[1] = molecular target: CrtJ (Rhodobacter capsulatus) (UniProt P26167); assay: MST; Monolith NT.115; RED-NHS-labeled CrtJ kept constant (200 or 500 nM), AerR varied from µM to nM; 20 mM Tris-HCl pH 8.0, 200 mM NaCl; AerR with bound hydroxyl-Cbl (OH-Cbl)
[2] = molecular target: CrtJ (Rhodobacter capsulatus) (UniProt P26167); assay: MST; Monolith NT.115; RED-NHS-labeled CrtJ kept constant (200 or 500 nM), AerR varied from µM to nM; 20 mM Tris-HCl pH 8.0, 200 mM NaCl; SAerR with bound Adenosyl-Cbl (Ado-Cbl)
CrtJ = molecular target: T1, CrtJ; assay: MST; Monolith NT.115; RED-NHS-labeled CrtJ kept constant (200 or 500 nM), AerR varied from µM to nM; 20 mM Tris-HCl pH 8.0, 200 mM NaCl; AerR with bound hydroxyl-Cbl (OH-Cbl); conditions: both partners purified

Molecule	EC50 [1] [nM]	EC50 [2] [nM]	EC50 (CrtJ) [nM]
SAerR (short isoform of AerR) (natural protein)	2100	2100	
LAerR (long isoform of AerR) (natural protein) MNGVAELQTVLVNRMVELATGPELGAMDLLFDEFRAAHVPVEEMATHYIPEAARQIGAAWDSDRIGFAQVTIAISRLQELLHALQTLVTADSVGCANGATVLLIVPPGEQHTLGALIVAMELRRRGVSVRIVFAPGLSDLSRLMATTRFDAALITVGSMDRVEICAKLVKTLSSLTKGRMRVAIGGAIVSQRAEALARTGADLVTNDLSLVISEFSLV			7800 ± 1200
